In article PMC10755771 one finds in vitro ubiquitination of STAM1 by AIP4 with βarr1 data, which are given here for one substance.

The assay addresses STAM1-His (signal-transducing adaptor molecule 1, wild type) (UniProt Q92783).

Substance “βarrestin1 (untagged, wild type) (from UniProt P49407 1-418) (natural protein)” registered an in vitro ubiquitination of STAM1 by AIP4 with βarr1 at 0-320 nM, 90 min at 37 °C; EC50 for βarr1 from the STAM1 immunoblots of 48.7 nM and an in vitro ubiquitination of STAM1 by AIP4 with βarr1 at 0-320 nM, 90 min at 37 °C; EC50 for βarr1 from the ubiquitin immunoblots of 49.8 nM.
